Data: the supplement of paper PMC11246515
± gives the standard deviation of the averaged measurements.

Test: total protein half-life in vivo (active degradation + dilution); higher = more stable protein
[1] = E. coli NCM3722 delta-clpP delta-lon delta-hslV, growth: N-lim chemostat, doubling time 6 h
[2] = E. coli NCM3722 delta-clpP, growth: N-lim chemostat, doubling time 6 h
[3] = E. coli NCM3722 delta-hslV, growth: N-lim chemostat, doubling time 6 h
[4] = E. coli NCM3722 delta-lon, growth: N-lim chemostat, doubling time 6 h
[5] = E. coli NCM3722 delta-smpB, growth: N-lim chemostat, doubling time 6 h
[6] = wild type E. coli NCM3722, growth: C-lim chemostat, doubling time 3 h
[7] = wild type E. coli NCM3722, growth: C-lim chemostat, doubling time 6 h
[8] = wild type E. coli NCM3722, growth: C-lim chemostat, doubling time 12 h
[9] = wild type E. coli NCM3722, growth: N-lim chemostat, doubling time 6 h
[10] = wild type E. coli NCM3722, growth: N-lim chemostat, doubling time 12 h
[11] = wild type E. coli NCM3722, growth: P-lim chemostat, doubling time 6 h
[12] = wild type E. coli NCM3722, growth: P-lim chemostat, doubling time 12 h

Sequence	total protein half-life in vivo [1] [h]	total protein half-life in vivo [2] [h]	total protein half-life in vivo [3] [h]	total protein half-life in vivo [4] [h]	total protein half-life in vivo [5] [h]	total protein half-life in vivo [6] [h]	total protein half-life in vivo [7] [h]	total protein half-life in vivo [8] [h]	total protein half-life in vivo [9] [h]	total protein half-life in vivo [10] [h]	total protein half-life in vivo [11] [h]	total protein half-life in vivo [12] [h]
MKRINALTIAGTDPSGGAGIQADLKTFSALGAYGCSVITALVAQNTRGVQSVYRIEPDFVAAQLDSVFSDVRIDTTKIGMLAETDIVEAVAERLQRYQIQNVVLDTVMLAKSGDPLLSPSAVATLRSRLLPQVSLITPNLPEAAALLDAPHARTEQEMLEQGRSLLAMGCGAVLMKGGHLDDEQSPDWLFTREGEQRFTAPRIMTKNTHGTGCTLSAALAALRPRHTNWADTVQEAKSWLSSALAQADTLEVGHGIGPVHHFHAWW	5.24 ± 0.81	5.47 ± 0.26	4.31 ± 0.15	4.49 ± 0.18	4.23 ± 0.093	3.06 ± 0.055	5.96 ± 0.11	9.68 ± 4.2	4.49 ± 0.61	7.38 ± 0.17	5.89 ± 0.12	9.53 ± 1.9
MKRKRLFLLASLLPMFALAGNKWNTTLPGGNMQFQGVIIAETCRIEAGDKQMTVNMGQISSNRFHAVGEDSAPVPFVIHLRECSTVVSERVGVAFHGVADGKNPDVLSVGEGPGIATNIGVALFDDEGNLVPINRPPANWKRLYSGSTSLHFIAKYRATGRRVTGGIANAQAWFSLTYQ	–	–	–	–	5.7 ± 0.54	2.67	6.06	–	–	–	–	–
MKRLIMATMVTAILASSTVWAADNAPVAAQQQTQQVQQTQKTAAAAERISEQGLYAMRDVQVARLALFHGDPEKAKELTNEASALLSDDSTEWAKFAKPGKKTNLNDDQYIVINASVGISESYVATPEKEAAIKIANEKMAKGDKKGAMEELRLAGVGVMENQYLMPLKQTRNALADAQKLLDKKQYYEANLALKGAEDGIIVDSEALFVN	–	–	–	–	–	–	–	–	–	–	4.05	–
MKRLKNELNALVNRGVDRHLRLAVTGLSRSGKTAFITAMVNQLLNIHAGARLPLLSAVREERLLGVKRIPQRDFGIPRFTYDEGLAQLYGDPPAWPTPTRGVSEIRLALRFKSNDSLLRHFKDTSTLYLEIVDYPGEWLLDLPMLAQDYLSWSRQMTGLLNGQRGEWSAKWRMMSEGLDPLAPADENRLADIAAAWTDYLHHCKEQGLHFIQPGRFVLPGDMAGAPALQFFPWPDVDTWGESKLAQADKHTNAGMLRERFNYYCEKVVKGFYKNHFLRFDRQIVLVDCLQPLNSGPQAFNDMRLALTQLMQSFHYGQRTLFRRLFSPVIDKLLFAATKADHVTIDQHANMVSLLQQLIQDAWQNAAFEGISMDCLGLASVQATTSGIIDVNGEKIPALRGNRLSDGAPLTVYPGEVPARLPGQAFWDKQGFQFEAFRPQVMDVDKPLPHIRLDAALEFLIGDKLR	6.51 ± 0.91	6.53 ± 0.49	6.01 ± 0.15	5.93 ± 0.19	5.925 ± 0.037	2.94 ± 0.0058	6.04 ± 0.74	10.8 ± 3.9	5.52 ± 0.18	12.23 ± 0.11	6.1 ± 0.29	12.2 ± 0.47
MKRLLILTALLPFVGFAQPINTLNNPNQPGYQIPSQQRMQTQMQTQQIQQKGMLNQQLKTQTQLQQQHLENQINNNSQRVLQSQPGERNPARQQMLPNTNGGMLNSNRNPDSSLNQQHMLPERRNGDMLNQPSTPQPDIPLKTIGP [P0ADX7]	5.56	–	–	4.65	3.81	–	–	–	–	7.44	–	–
MKRLSITVRLTLLFILLLSVAGAGIVWTLYNGLASELKWRDDTTLINRTAQIKQLLIDGVNPDTLPVYFNRMMDVSQDILIIHGDSINKIVNRTNVSDGMLNNIPASETISAAGIYRSIINDTEIDALRINIDEVSPSLTVTVAKLASARHNMLEQYKINSIIICIVAIVLCSVLSPLLIRTGLREIKKLSGVTEALNYNDSREPVEVSALPRELKPLGQALNKMHHALVKDFERLSQFADDLAHELRTPINALLGQNQVTLSQTRSIAEYQKTIAGNIEELENISRLTENILFLARADKNNVLVKLDSLSLNKEVENLLDYLEYLSDEKEICFKVECNQQIFADKILLQRMLSNLIVNAIRYSPEKSRIHITSFLDTNSYLNIDIASPGTKINEPEKLFRRFWRGDNSRHSVGQGLGLSLVKAIAELHGGSATYHYLNKHNVFRITLPQRN	5.59 ± 0.15	6.99 ± 0.076	6.03 ± 0.26	–	5.75 ± 0.48	3.13 ± 0.66	7.13 ± 0.64	10.1	6.174 ± 0.057	12.98 ± 0.022	5.63 ± 0.89	13.4 ± 0.56
MKRPALILICLLLQACSATTKELGNSLWDSLFGTPGVQLTDDDIQNMPYASQYMQLNGGPQLFVVLAFAEDGQQKWVTQDQATLVTQHGRLVKTLLGGDNLIEVNNLAADPLIKPAQIVDGASWTRTMGWTEYQQVRYATARSVFKWDGTDTVKVGSDETPVRVLDEEVSTDQARWHNRYWIDSEGQIRQSEQYLGADYFPVKTTLIKAAKQ	6.57 ± 0.37	6.43	–	6.59 ± 0.19	5.12 ± 0.2	–	–	–	–	–	–	–
MKRPDYRTLQALDAVIRERGFERAAQKLCITQSAVSQRIKQLENMFGQPLLVRTVPPRPTEQGQKLLALLRQVELLEEEWLGDEQTGSTPLLLSLAVNADSLATWLLPALAPVLADSPIRLNLQVEDETRTQERLRRGEVVGAVSIQHQALPSCLVDKLGALDYLFVSSKPFAEKYFPNGVTRSALLKAPVVAFDHLDDMHQAFLQQNFDLPPGSVPCHIVNSSEAFVQLARQGTTCCMIPHLQIEKELASGELIDLTPGLFQRRMLYWHRFAPESRMMRKVTDALLDYGHKVLRQD [P0A8S1]	5.48 ± 0.31	5.93 ± 1.3	5.46 ± 0.27	5.78 ± 0.57	4.96 ± 0.39	3.01 ± 0.31	–	11.6 ± 0.16	5.84 ± 0.67	9.72 ± 0.46	6.03 ± 0.091	13.4 ± 0.89
MKRPNFLFVMTDTQATNMVGCYSGKPLNTQNIDSLAAEGIRFNSAYTCSPVCTPARAGLFTGIYANQSGPWTNNVAPGKNISTMGRYFKDAGYHTCYIGKWHLDGHDYFGTGECPPEWDADYWFDGANYLSELTEKEISLWRNGLNSVEDLQANHIDETFTWAHRISNRAVDFLQQPARADEPFLMVVSYDEPHHPFTCPVEYLEKYADFYYELGEKAQDDLANKPEHHRLWAQAMPSPVGDDGLYHHPLYFACNDFVDDQIGRVINALTPEQRENTWVIYTSDHGEMMGAHKLISKGAAMYDDITRIPLIIRSPQGERRQVDTPVSHIDLLPTMMALADIEKPEILPGENILAVKEPRGVMVEFNRYEIEHDSFGGFIPVRCWVTDDFKLVLNLFTSDELYDRRNDPNEMHNLIDDIRFADVRSKMHDALLDYMDKIRDPFRSYQWSLRPWRKDARPRWMGAFRPRPQDGYSPVVRDYDTGLPTQGVKVEEKKQKF	5.62	–	–	3.1	2	2.28	4.35 ± 0.17	7.04 ± 0.66	–	–	4.04	8.72 ± 5.3
